Experimental data taken from patent US11471462B2, “Compositions and methods for detecting and treating diabetes” (THE BROAD INSTITUTE, INC., priority 2016, dated 2022).

B1: BRAT1 (protein)
chain: MDPECAQLLPALCAVLVDPRQPVADDTCLEKLLDWFKTVTEGESSVVLLQEHPCLVELLSHVLKVQDLSSGVLSFSLRLAGTFAAQENCFQYLQQGELLPGLFGEPGPLGRATWAVPTVRSGWIQGLRSLAQHPSALRFLADHGAVDTIFSLQGDSSLFVASAASQLLVHVLALSMRGGAEGQPCLPGGDWPACAQKIMDHVEESLCSAATPKVTQALNVLTTTFGRCQSPWTEALWVRLSPRVACLLERDPIPAAHSFVDLLLCVARSPVFSSSDGSLWETVARALSCLGPTHMGPLALGILKLEHCPQALRTQAFQVLLQPLACVLKATVQAPGPPGLLDGTADDATTVDTLLASKSSCAGLLCRTLAHLEELQPLPQRPSPWPQASLLGATVTVLRLCDGSAAPASSVGGHLCGTLAGCVRVQRAALDFLGTLSQGTGPQELVTQALAVLLECLESPGSSPTVLKKAFQATLRWLLSSPKTPGCSDLGPLIPQFLRELFPVLQKRLCHPCWEVRDSALEFLTQLSRHWGGQADFRCALLASEVPQLALQLLQDPESYVRASAVTAMGQLSSQGLHAPTSPEHAEARQSLFLELLHILSVDSEGFPRRAVMQVFTEWLRDGHADAAQDTEQFVATVLQAASRDLDWEVRAQGLELALVFLGQTLGPPRTHCPYAVALPEVAPAQPLTEALRALCHVGLFDFAFCALFDCDRPVAQKSCDLLLFLRDKIASYSSLREARGSPNTASAEATLPRWRAGEQAQPPGDQEPEAVLAMLRSLDLEGLRSTLAESSDHVEKSPQSLLQDMLATGGFLQGDEADCY
B2: DHCR7 (protein)
chain: MAAKSQPNIPKAKSLDGVTNDRTASQGQWGRAWEVDWFSLASVIFLLLFAPFIVYYFIMACDQYSCALTGPVVDIVTGHARLSDIWAKTPPITRKAAQLYTLWVTFQVLLYTSLPDFCHKFLPGYVGGIQEGAVTPAGVVNKYQINGLQAWLLTHLLWFANAHLLSWFSPTIIFDNWIPLLWCANILGYAVSTFAMVKGYFFPTSARDCKFTGNFFYNYMMGIEFNPRIGKWFDFKLFFNGRPGIVAWTLINLSFAAKQRELHSHVTNAMVLVNVLQAIYVIDFFWNETWYLKTIDICHDHFGWYLGWGDCVWLPYLYTLQGLYLVYHPVQLSTPHAVGVLLLGLVGYYIFRVANHQKDLFRRTDGRCLIWGRKPKVIECSYTSADGQRHHSKLLVSGFWGVARHFNYVGDLMGSLAYCLACGGGHLLPYFYIIYMAILLTHRCLRDEHRCASKYGRDWERYTAAVPYRLLPGIF
B3: EMC3 (protein)
chain: AGPELLLDSNIRLWVVLPIVIITFFVGMIRHYVSILLQSDKKLTQEQVSDSQVLIRSRVLRENGKYIPKQSFLTRKYYFNNPEDGFFKKTKRKVVPPSPMTDPTMLTDMMKGNVTNVLPMILIGGWINMTFSGFVTTKVPFPLTLRFKPMLQQGIELLTLDASWVSSASWYFLNVFGLRSIYSLILGQDNAADQSRMMQEQMTGAAMAMPADTNKAFKTEWEALELTDHQWALDDVEEELMAKDLHFEGMFKKELQTSIF
B4: DNAJC7 (protein)
chain: AAAAECDVVMAATEPELLDDQEAKREAETFKEQGNAYYAKKDYNEAYNYYTKAIDMCPKNASYYGNRAATLMMLGRFREALGDAQQSVRLDDSFVRGHLREGKCHLSLGNAMAACRSFQRALELDHKNAQAQQEFKNANAVMEYEKIAETDFEKRDFRKVVFCMDRALEFAPACHRFKILKAECLAMLGRYPEAQSVASDILRMDSTNADALYVRGLCLYYEDCIEKAVQFFVQALRMAPDHEKACIACRNAKALKAKKEDGNKAFKEGNYKLAYELYTEALGIDPNNIKTNAKLYCNRGTVNSKLRKLDDAIEDCTNAVKLDDTYIKAYLRRAQCYMDTEQYEEAVRDYEKVYQTEKTKEHKQLLKNAQLELKKSKRKDYYKILGVDKNASEDEIKKAYRKRALMHHPDRHSGASAEVQKEEEKKFKEVGEAFTILSDPKKKTRYDSGQDLDEEGMNMGDFDPNNIFKAFFGGPGGFSFEASGPGNFFFQFG
B5: DNAJC3 (protein)
chain: GVNADVEKHLELGKKLLAAGQLADALSQFHAAVDGDPDNYIAYYRRATVFLAMGKSKAALPDLTKVIQLKMDFTAARLQRGHLLLKQGKLDEAEDDFKKVLKSNPSENEEKEAQSQLIKSDEMQRLRSQALNAFGSGDYTAAIAFLDKILEVCVWDAELRELRAECFIKEGEPRKAISDLKAASKLKNDNTEAFYKISTLYYQLGDHELSLSEVRECLKLDQDHKRCFAHYKQVKKLNKLIESAEELIRDGRYTDATSKYESVMKTEPSIAEYTVRSKERICHCFSKDEKPVEAIRVCSEVLQMEPDNVNALKDRAEAYLIEEMYDEAIQDYETAQEHNENDQQIREGLEKAQRLLKQSQKRDYYKILGVKRNAKKQEIIKAYRKLALQWHPDNFQNEEEKKKAEKKFIDIAAAKEVLSDPEMRKKFDDGEDPLDAESQQGGGGNPFHRSWNSWQGFNPFSSGGPFRFKFHFN
B6: SEC61A1 (protein)
chain: MTQTARVLVKFLEVIKPFCVILPEIQKPERKIQFKEKVLWTAITLFIFLVCCQIPLFGIMSSDSADPFYWMRVILASNRGTLMELGISPIVTSGLIMQLLAGAKIIEVGDTPKDRALFNGAQKLFGMIITIGQSIVYVMTGMYGDPSEMGAGICLLITIQLFVAGLIVLLLDELLQKGYGLGSGISLFIATNICETIVWKAFSPTTVNTGRGMEFEGAIIALFHLLATRTDKVRALREAFYRQNLPNLMNLIATIFVFAVVIYFQGFRVDLPIKSARYRGQYNTYPIKLFYTSNIPIILQSALVSNLYVISQMLSARFSGNLLVSLLGTWSDTSSGGPARAYPVGGLCYYLSPPESFGSVLEDPVHAVVYIVFMLGSCAFFSKTWIEVSGSSAKDVAKQLKEQQMVMRGHRETSMVHELNRYIPTAAAFGGLCIGALSVLADFLGAIGSGTGILLAVTIIYQYFEIFVKEQSEVGSMGALLF
B7: QIL1 (protein)
chain: MVARVWSLMRFLIKGSVAGGAVYLVYDQELLGPSDKSQAALQKAGEVVPPAMYQFSQYVCQQTGLQIPQLPAPPKIYFPIRDSWNAGIMTVMSALSVAPSKAREYSKEGWEYVKARTK
B8: TUBA1C (protein)
chain: MTAWFNGVEELGRDECFVCLELDPSNGSFLNAKLYISNWILIYFTRTLQLPAPFNTCTSSKSRGEPGCDSKRECISIHVGQAGVQIGNACWELYCLEHGIQPDGQMPSDKTIGGGDDSFNTFFSETGAGKHVPRAVFVDLEPTVIDEVRTGTYRQLFHPEQLITGKEDAANNYARGHYTIGKEIIDLVLDRIRKLADQCTGLQGFLVFHSFGGGTGSGFTSLLMERLSVDYGKKSKLEFSIYPAPQVSTAVVEPYNSILTTHTTLEHSDCAFMVDNEAIYDICRRNLDIERPTYTNLNRLISQIVSSITASLRFDGALNVDLTEFQTNLVPYPRIHFPLATYAPVISAEKAYHEQLTVAEITNACFEPANQMVKCDPRHGKYMACCLLYRGDVVPKDVNAAIATIKTKRTIQFVDWCPTGFKVGINYQPPTVVPGGDLAKVQRAVCMLSNTTAVAEAWARLDHKFDLMYAKRAFVHWYVGEGMEEGEFSEAREDMAALEKDYEEVGADSADGEDEGEEY
B9: STT3A (protein)
chain: MTKFGFLRLSYEKQDTLLKLLILSMAAVLSFSTRLFAVLRFESVIHEFDPYFNYRTTRFLAEEGFYKFHNWFDDRAWYPLGRIIGGTIYPGLMITSAAIYHVLHFFHITIDIRNVCVFLAPLFSSFTTIVTYHLTKELKDAGAGLLAAAMIAVVPGYISRSVAGSYDNEGIAIFCMLLTYYMWIKAVKTGSICWAAKCALAYFYMVSSWGGYVFLINLIPLHVLVLMLTGRFSHRIYVAYCTVYCLGTILSMQISFVGFQPVLSSEHMAAFGVFGLCQIHAFVDYLRSKLNPQQFEVLFRSVISLVGFVLLTVGALLMLTGKISPWTGRFYSLLDPSYAKNNIPIIASVSEHQPTTWSSYYFDLQLLVFMFPVGLYYCFSNLSDARIFIIMYGVTSMYFSAVMVRLMLVLAPVMCILSGIGVSQVLSTYMKNLDISRPDKKSKKQQDSTYPIKNEVASGMILVMAFFLITYTFHSTWVTSEAYSSPSIVLSARGGDGSRIIFDDFREAYYWLRHNTPEDAKVMSWWDYGYQITAMANRTILVDNNTWNNTHISRVGQAMASTEEKAYEIMRELDVSYVLVIFGGLTGYSSDDINKFLWMVRIGGSTDTGKHIKENDYYTPTGEFRVDREGSPVLLNCLMYKMCYYRFGQVYTEAKRPPGFDRVRNAEIGNKDFELDVLEEAYTTEHWLVRIYKVKDLDNRGLSRT
B10: TUBA4A (protein)
chain: MRECISVHVGQAGVQMGNACWELYCLEHGIQPDGQMPSDKTIGGGDDSFTTFFCETGAGKHVPRAVFVDLEPTVIDEIRNGPYRQLFHPEQLITGKEDAANNYARGHYTIGKEIIDPVLDRIRKLSDQCTGLQGFLVFHSFGGGTGSGFTSLLMERLSVDYGKKSKLEFSIYPAPQVSTAVVEPYNSILTTHTTLEHSDCAFMVDNEAIYDICRRNLDIERPTYTNLNRLISQIVSSITASLRFDGALNVDLTEFQTNLVPYPRIHFPLATYAPVISAEKAYHEQLSVAEITNACFEPANQMVKCDPRHGKYMACCLLYRGDVVPKDVNAAIAAIKTKRSIQFVDWCPTGFKVGINYQPPTVVPGGDLAKVQRAVCMLSNTTAIAEAWARLDHKFDLMYAKRAFVHWYVGEGMEEGEFSEAREDMAALEKDYEEVGIDSYEDEDEGEE
B11: HEATR2 (protein)
chain: AALGVAEAVAAPHPAEGAETAEAVELSRALSRLLPGLEADSKPGRRRALEALRRALEEPGPAADPTAFQGPWARLLLPRLLRCLSDPAEGCRALAVHLLDLGLRRAARPRDALPRLLPALAARLAGPVPARRPPEACEELRLALVQLLGLAVDLCGAALAPHLDDALRALRCSLLDPFAAVRRESCSCAAALAQATPDHFHMQSESLIGPLMQTISHQHWKVRVAAIEATGAVIHFGNGKSVDDVLSHFAQRLFDDVPQVRRAVASVVGGWLLCLRDRYSFFHKLIPLLLSSLNDEVPEVRQLAASLWEDVGLQWQKENEEDLKDKLDFAPPTPPHYPPHERRPVLGCRELVFRNLSKILPALCHDITDWVVGTRVKSAQLLPVLLLHAEDHATQHLEVVLRTLFQACTDEEAAVVQSCTRSAELVGTFVSPEVFLKLILSTLKKTPSASGLLVLASAMRGCPREALQPHLAAIATELAQAHICQASENDLYLERLLLCVQALVSVCHEDCGVASLQLLDVLLTIVALAGATGLRDKAQETMDSLAMVEGVSSCQDLYRKHIGPLLERVTASHLDWTAHSPELLQFSVIVAQSGPALGEALPHVVPTLRACLQPSQDPQMRLKLFSILSTVLLRATDTINSQGQFPSYLETVTKDILAPNLQWHAGRTAAAIRTAAVSCLWALTSSEVLSAEQIRDVQETLMPQVLTTLEEDSKMTRLISCRIINTFLKTSGGMTDPEKLIRIYPELLKRLDDVSNDVRMAAASTLVTWLQCVKGANAKSYYQSSVQYLYRELLVHLDDPERAIQDAILEVLKEGSGLFPDLLVRETEAVIHKHRSATYCEQLLQHVQAVPATQ

The molecules below were run on SLC16A11 (assay: SLC16A11 protein-protein interaction study (immunoprecipitation, quantitative mass spectrometry)). Conditions: putative SLC16A11^REF interaction partners; immunoprecipitation from HEK293T cells vs empty vector control; Blandt-Altman.
Design: species or system human

Question: With B1 as the molecule, how does the “BA log fold change” value read?
Answer: 1.04

Question: With B2 as the molecule, how does the “BA log fold change” value read?
Answer: 1.69

Question: B3 was tested. Which “BA log fold change” value did it give?
Answer: 1.65

Question: Which “BA log fold change” value does the source give for B4 here?
Answer: 1.05

Question: For B5, which “BA log fold change” value is on record?
Answer: 1.22

Question: Which “BA log fold change” value does the source give for B6 here?
Answer: 1.84

Question: With B7 as the molecule, how does the “BA log fold change” value read?
Answer: 1.08

Question: With B8 as the molecule, how does the “BA log fold change” value read?
Answer: 1.04

Question: With B9 as the molecule, how does the “BA log fold change” value read?
Answer: 1.27

Question: How did the “BA log fold change” value turn out when B10 was run?
Answer: 1.02

Question: How did the “BA log fold change” value turn out when B11 was run?
Answer: 1.03
